Experimental data: the supplement of paper PMC9732359
± gives the uncertainty stated by the source.

Assay: protein stability index of a GFP-peptide fusion (yeast GPS) (PSI 1-4); higher = more stable; sorted into four equal gates, so the index is relative within each strain
Procedure, shortened: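 Tiled 17-residue yeast protein peptides were fused downstream of GFP in a plasmid that also expresses Cherry, and the pooled library was carried in yeast. Mid-log cultures in leucine-free medium were sorted into four equal gates by GFP/Cherry fluorescence ratio, and plasmids from each gate were PCR-amplified and Illumina-sequenced, with reads assigned to strains by barcodes. The protein stability index for each peptide was each gate's read frequency times its gate number, summed.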

Sequence | protein stability index (doa10∆) | protein stability index (pdr5∆) | protein stability index (san1∆) | protein stability index (ubr1∆)
QWFLQYQNQFVEFCRNI [YML103C/NUP188] | 2.48 ± 0.17 | 1.86 ± 0.12 | 1.89 ± 0.17 | 2.24 ± 0.1
TQATSEDGTSASFQIVE [RPC19] | 2.88 ± 0.073 | 3.18 ± 0.079 | 3.05 ± 0.051 | 3.12 ± 0.068
TVKLTEIVWTSSLIKAG [RPO31] | 1.48 ± 0.058 | 1.69 ± 0.067 | 1.24 ± 0.14 | 1.24 ± 0.063
EGRLLDNVQANDPAREK [SNF12] | 2.8 ± 0.11 | 3.21 ± 0.065 | 2.96 ± 0.05 | 3.18 ± 0.042
PFTNEAHMWPRVHDQPL [POP3] |  | 1.36 ± 0.24 |  | 
LISIHSRENNSEYMVFG [YJL039C/NUP192] | 3.03 ± 0.11 | 2.25 ± 0.13 | 2.77 ± 0.1 | 3.15 ± 0.19
VFESLEINNLIQLPASL [ARP9] | 1.61 ± 0.08 | 1.88 ± 0.05 | 1.83 ± 0.077 | 1.6 ± 0.055
SRDKTIKVWTIKGQCLA [ASC1] | 1.63 ± 0.078 | 2.04 ± 0.074 | 2.12 ± 0.11 | 1.83 ± 0.06
QVLKCKESWDPNTTKTK [YGR119C/NUP57] | 3.52 ± 0.21 | 3.41 ± 0.076 | 3.63 ± 0.089 | 3.55 ± 0.15
ARKSAPSTGGVKKPHRY [HHT1] | 1.66 ± 0.065 | 1.87 ± 0.052 | 2.03 ± 0.075 | 2.03 ± 0.063
KDIKANLSSNVNFTEIG [YCS4] | 2.83 ± 0.043 | 2.74 ± 0.051 | 2.77 ± 0.05 | 2.77 ± 0.039
KFTIEPGVLPVGIDTHT [SNF2] | 2.75 ± 0.12 | 2.61 ± 0.14 | 3 ± 0.14 | 2.73 ± 0.068
MENILQRCKSNAISLQL [YIL149C/MLP2] | 1.9 ± 0.046 | 2 ± 0.048 | 2.05 ± 0.071 | 1.57 ± 0.046
IRLSKILEDDFAVALKN [CDC53] | 3.19 ± 0.15 | 3.16 ± 0.14 | 3.04 ± 0.072 | 3.04 ± 0.08
VLPDADVKLLHSQFMKD [YJL039C/NUP192] |  | 2.21 ± 0.12 |  | 2.27 ± 0.25
EYMVQYIDEMYNHNDGG [RRI1] | 3.03 ± 0.052 | 3.24 ± 0.076 | 3.21 ± 0.14 | 3.19 ± 0.087
DYNKKQDRIQDVKLVLA [MED1] | 2.69 ± 0.078 | 2.83 ± 0.074 | 2.28 ± 0.11 | 2.28 ± 0.072
LPKLNLPKYQTIQYDPP [SNF5] | 2.53 ± 0.22 | 2.6 ± 0.11 | 2.31 ± 0.16 | 2.11 ± 0.084
NLDYLFELIELVTPKSF [NUT1] | 2.85 ± 0.057 | 3 ± 0.082 | 3.09 ± 0.062 | 3.31 ± 0.063
NSNSNSGSLFGSNNAQT [YGL172W/NUP49] | 2.6 ± 0.13 | 3.24 ± 0.085 | 2.9 ± 0.3 | 3.11 ± 0.11
QTFGVDILAKLFSLEKP [SWI1] | 2.81 ± 0.063 | 2.52 ± 0.061 | 2.58 ± 0.058 | 2.51 ± 0.046
QIIFGVVEKKTVGSSNG [RPO21] | 1.66 ± 0.11 | 1.66 ± 0.098 | 1.66 ± 0.19 | 1.6 ± 0.066
DSADVPAFSNSNGFNNV [YMR153W/NUP53] | 3.1 ± 0.062 | 3.2 ± 0.067 | 3.22 ± 0.041 | 3.23 ± 0.048
EDILQGIFNLLNTLFNP [NUT1] | 2.23 ± 0.052 | 2.35 ± 0.055 | 2.41 ± 0.078 | 2.3 ± 0.075
KNIQSKDSYINANTIET [FAS2] | 2.9 ± 0.05 | 2.88 ± 0.043 | 2.9 ± 0.038 | 2.94 ± 0.052
MASNEVLVLRGTLEGHN [ASC1] | 3.06 ± 0.17 | 2.22 ± 0.16 | 3.24 ± 0.13 | 3.16 ± 0.25

Sequence | protein stability index (doa10∆) | protein stability index (pdr5∆) | protein stability index (san1∆) | protein stability index (ubr1∆)
LLRSRLATRRVLQEYRL [RPO21] | 2.62 ± 0.067 | 2.07 ± 0.083 | 2.27 ± 0.11 | 1.63 ± 0.072
MPPKQQLSKAAKAAAAL [RPS25A] | 1.73 ± 0.048 | 1.87 ± 0.05 | 1.76 ± 0.062 | 1.83 ± 0.042
ISHDDLQAVAVAVSTKK [FAS2] | 1.47 ± 0.29 | 1.48 ± 0.099 | 1.19 ± 0.12 | 1.32 ± 0.23
EQTVEYMVSRAIRDGVI [RPN3] | 3.47 ± 0.15 | 3.58 ± 0.1 | 2.64 ± 0.17 | 3.45 ± 0.049
ILDITDEELVSHFVSAV [RPP0] | 2.99 ± 0.12 | 2.88 ± 0.14 | 3.01 ± 0.13 | 3.05 ± 0.071
NVNKKALGQDTEKMEEQ [MED11] | 2.88 ± 0.059 | 2.94 ± 0.055 | 2.88 ± 0.034 | 3.04 ± 0.05
VGSENVECTISILRKSS [SNF12] | 1.89 ± 0.042 | 2.23 ± 0.044 | 2.43 ± 0.044 | 2.11 ± 0.036
IKNFKSLLLSSSFKEDC [SSN2] | 2.82 ± 0.11 | 2.98 ± 0.094 | 2.96 ± 0.086 | 3.11 ± 0.086
GGSFGNREEFINKLVKS [RPL7A] | 2.98 ± 0.22 |  | 3.18 ± 0.17 | 2.93 ± 0.077
PNSNVELAGGNASLTIE [SMC1] | 2.91 ± 0.091 | 3.06 ± 0.2 | 2.95 ± 0.071 | 3.04 ± 0.27
STVIEEFTLFMDIAERI [YGL172W/NUP49] | 2.37 ± 0.053 | 2.71 ± 0.053 | 2.47 ± 0.049 | 2.75 ± 0.038
ARVTGGMKVKADRDESS [RPS14B] | 2.5 ± 0.072 | 2.92 ± 0.067 | 3.12 ± 0.05 | 3.03 ± 0.043
DELSSKELVECHLYSQR [NNF1] | 2.05 ± 0.056 | 2.33 ± 0.052 | 2.13 ± 0.094 | 2 ± 0.04
EFIYLTKVLQFAAKQRQ [SNF2] | 1.33 ± 0.19 | 1.28 ± 0.15 | 1.39 ± 0.15 | 
GYLITPPKHTELLLTTL [SSN2] | 1.85 ± 0.062 | 1.86 ± 0.052 | 1.54 ± 0.11 | 1.54 ± 0.031
VKKPTFTFGQSTSENKI [YOR098C/NUP1] | 3.02 ± 0.21 | 2.87 ± 0.21 | 3.14 ± 0.2 | 3.45 ± 0.14
LLFEDLFKKFNNDFKLS [RET1] |  | 1.39 ± 0.23 |  | 2.73 ± 0.13
SQLKKSKAQQKTAEQVA [RPL7A] | 2.7 ± 0.071 | 2.79 ± 0.087 | 2.58 ± 0.1 | 2.94 ± 0.052
SVAKIRFPETMDETQTR [RPO21] | 3.55 ± 0.073 | 3.34 ± 0.12 | 3.66 ± 0.063 | 3.59 ± 0.049
VEEKPGDRGALARASGN [RPL2A] | 2.95 ± 0.12 | 3.23 ± 0.13 | 3.37 ± 0.092 | 3.13 ± 0.11
GNGEGLGGDSDEANIEI [BRN1] | 3.11 ± 0.17 | 3.48 ± 0.27 | 2.95 ± 0.17 | 
AVGNLGNAIEVTEDGSI [RPL22B] | 1.16 ± 0.13 | 1.45 ± 0.098 | 1.24 ± 0.19 | 1.27 ± 0.05
NQLEDFILELEHKTPEL [YIL149C/MLP2] | 2.74 ± 0.14 | 3.28 ± 0.16 | 3.07 ± 0.14 | 3.35 ± 0.12
RDLKPSNLEKLLFINSS [YML103C/NUP188] | 1.93 ± 0.11 | 1.91 ± 0.093 | 1.66 ± 0.13 | 1.69 ± 0.1
GPSVESYELRNTTTYKS [SNF5] | 2.75 ± 0.1 | 2.9 ± 0.099 | 2.41 ± 0.094 | 1.99 ± 0.082
